Measurements taken from patent US9902783B2, “Antibodies and pharmaceutical compositions containing same useful for inhibiting activity of metalloproteins” (Yeda Research and Development Co. Ltd., priority 2007, dated 2018).

T1: MMP-7 (matrilysin) (Homo sapiens, UniProt P09237)
T1 sequence (P09237 95-267): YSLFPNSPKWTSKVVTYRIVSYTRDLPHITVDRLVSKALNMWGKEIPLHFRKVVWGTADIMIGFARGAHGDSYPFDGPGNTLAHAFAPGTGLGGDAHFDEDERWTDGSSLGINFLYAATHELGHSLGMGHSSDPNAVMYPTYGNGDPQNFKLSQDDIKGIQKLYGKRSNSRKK

B1: 6C6: monoclonal antibody, IgG2a, raised against the hapten Imisdp; MMP-2 and MMP-9 inhibitory; SEQ ID NO: 1 (protein)
chain: CMETTQTPLSLPVSLGDQASISCRSSQSIVHSNGNTFLEWYLQKPGQSPKLLIYKVSNCRFSGVPDRFSGSGSGTDFTLKISRVEAEDLGVYYCFQASHVPPTFGGG
modifications: 6c6 mAb light chain
B2: 13E11: monoclonal antibody, IgG2b, raised against the hapten CoTCPP (antibody, V domains shown)
VH: EGGGLVQPGGSRKLSCAASGFTFTSFGMHWVRQAPEKGLEWVAYISSGNEIIYYADTVKGRFTISRDNPKNTLFLQMTSLRSEDTAMYYCARNYYRYGFYVMDYWGQG
VL: EIVVTQSPAILSASPGEKVTMTCRASSSVSYMHWYQQKPGSSPKPWIYATSNELASGVPARFSGSGSGTSYSLTISRVEAEDAATYYCQQWISNPLTFGAG
modifications: 13E11 mAb heavy chain; 13E11 mAb light chain
notes: monoclonal antibody, IgG2b, raised against the hapten CoTCPP

Key:
[1] = target: T2, catalytic zinc ion of MMP9 (Homo sapiens, UniProt P14780); test: X-ray absorption spectroscopy of MMP9-6C6 complex; details: zinc K edge XAS, MMP-9 catalytic domain-mAb complex
T2 construct: lacking the hinge region and the hemopexin domain, Ala1-Gly424 |P14780|MMP9_HUMAN; made in house
From the text: FIG. 16 is a graph of results from X-ray absorption spectroscopy at the zinc K edge of active MMP9 (black) and inhibited MMP9-6C6 complex (red). The results are presented in the form of radial distribution from the zinc ion. The edge position the MMP-9 catalytic domain-mAb complex (red) shifts to a higher energy relative to active MMP-9 (inset) indicating binding to the catalytic zinc ion. […] Remarkably, this mode of binding is analogous to the binding of TIMPs at the active site of MMPs.
In order to further study the differences between active MMP9 and an inhibited MMP9-6C6 complex, X ray absorption spectroscopy was performed. […] The data is presented in the form of Fourier transform (FT) spectra to provide the radial distribution of the various atoms within the first and second coordination shells of the catalytic zinc ion in MMP9. Apparent change in the radial distribution spectra of the free and inhibited enzyme can be observed above the noise level. These spectral changes indicate that the local environment of the catalytic zinc ion undergoes structural changes upon binding to 6C6. The observed deviation in both spatial distribution and peak intensities of the FT spectral features between the active and the inhibited enzyme indicate unequivocally that the local structure of the catalytic zinc changes upon mAb complex formation.

[2] = target: T1, MMP-7 (matrilysin); test: inhibition assay with fluorogenic peptide substrate, MMP-7; assay type: biochemical; details: mAb concentrations of up to 30 μM
Protocol: To explore the selectivity of 6C6, its reactivity was tested toward different matrix metalloproteinase subgroups including matrilysin (MMP7), membrane type MMP (MT1-MMP) and related disintegrin (ADAMs) tumor necrosis factor-α-converting enzyme (TACE). The core structures of these enzymes, are highly similar, varying mostly within the peripheral loops. Specifically the zinc-histidine scaffold is well conserved, showing a consensus helix followed by a loop that serves as a scaffold for the three histidine residues that coordinate the catalytic zinc ion (FIG. 13).
Similar inhibition assays were performed with appropriate flourogenic peptide substrates. […] Sequence variations, mostly within the peripheral loops dictate differences in the extent of exposure of the zinc-histidine motif, in the shape of the active site and its surface electrostatic may account for this selective inhibitory pattern.

[3] = target: T3, active MMP-9 (Mus musculus, UniProt P41245); test: co-purification of active MMP-9 with mAb from mice ascites fluid (western blot); assay type: binding; details: co-purified from mice ascites fluid, about 82 KDa band in western blot
T3 construct: corresponding to active MMP9 lacking the pro-domain was identified; from tissue; host or cells: mouse ascites fluid
Protocol: FIGS. 11A-11D are photographs and models illustrating that 6C6 binds only the active conformation of MMP9 and MMP2. FIG. 11A: Detection of active MMP9 that co-purified with 6C6 from mice ascites fluid. MAb (10 μg) purified from mice ascites fluid containing MMP9, was subjected to western blot (WB) analysis using commercial anti MMP9 antibody. Non related IgG mAb that has been purified in the same manner, served as negative control (MAb Control). Human ProMMP9 purified from Hilla transfected cells served as molecular weight marker to discern the active species. Purification was done by affinity chromatography using protein G beads which bind mAb via its constant domain, leaving the antigen binding site free to interact with the antigen. FIGS. 11B,C: 6C6 mAb immobilized to protein A beads was analyzed for its ability to pull down ProMMP2, ProMMP9, or MMP2 catalytic fragment (lacking the hemopexin and pro domains) from solution. […]
Selected hybridomas were subcloned twice by limited dilutions, followed by large-scale production by ascites tumors primed with pristine (2,6,10,14 tetrametylpentadecane) injected BALB/c mice. […] The elution peak was analyzed by SDS-PAGE.
Purified antibodies were separated in 8% SDS-polyacrylamide gel, transferred to NC membranes (Bio-Rad), and subsequently subjected to immunoblot analysis using anti MMP-9 antibody (Sigma). […] Signals were detected using ECL (Pierce).

[4] = test system: MT1 catalytic domain; test: immuno affinity binding assay, MT1-MMP; details: purified enzyme
Protocol: MAbs (10 μg) were incubated with anti mouse IgG Agarose beads (Sigma) overnight at 4° C. in PBS. After washing unbound antibody, purified Pro-MMP-2, Pro-MMP-9 MMP-2 catalytic domain, MT1 catalytic domain or TACE (2 μg), were added following 2 h incubation at RT. The beads were collected by centrifugation and washed three times with PBS. The proteins that remained bound to the beads were eluted with SDS sample buffer, fractionated by SDS-PAGE, and detected by staining with Coomassie blue.

[5] = target: MMP-2 (Mus musculus, UniProt P33434); test: kinetic assay with fluorogenic peptide substrate, MMP-2; assay type: biochemical, human
Sequence of MMP-2 (P33434 110-467): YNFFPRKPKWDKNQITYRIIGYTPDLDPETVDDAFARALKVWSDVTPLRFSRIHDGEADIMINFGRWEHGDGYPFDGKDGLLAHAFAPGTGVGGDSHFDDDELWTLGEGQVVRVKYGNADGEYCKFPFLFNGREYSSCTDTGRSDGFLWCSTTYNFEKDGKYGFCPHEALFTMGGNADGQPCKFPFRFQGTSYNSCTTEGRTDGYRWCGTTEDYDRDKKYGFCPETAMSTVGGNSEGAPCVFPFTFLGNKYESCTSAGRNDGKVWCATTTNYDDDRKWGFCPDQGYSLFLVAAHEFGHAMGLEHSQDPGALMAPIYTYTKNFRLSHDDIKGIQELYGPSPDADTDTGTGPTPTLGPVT

T2 sequence (P14780 94-444): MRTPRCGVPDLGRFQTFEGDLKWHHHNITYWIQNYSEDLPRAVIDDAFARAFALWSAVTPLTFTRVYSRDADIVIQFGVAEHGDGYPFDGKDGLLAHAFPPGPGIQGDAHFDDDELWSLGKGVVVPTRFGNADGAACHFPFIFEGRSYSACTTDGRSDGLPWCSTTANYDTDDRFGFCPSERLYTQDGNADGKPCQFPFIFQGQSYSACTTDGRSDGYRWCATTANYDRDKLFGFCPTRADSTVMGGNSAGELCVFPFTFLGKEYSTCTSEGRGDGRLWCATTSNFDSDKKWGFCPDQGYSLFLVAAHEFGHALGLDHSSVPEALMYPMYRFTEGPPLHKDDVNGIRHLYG
T3 sequence (P41245 108-730): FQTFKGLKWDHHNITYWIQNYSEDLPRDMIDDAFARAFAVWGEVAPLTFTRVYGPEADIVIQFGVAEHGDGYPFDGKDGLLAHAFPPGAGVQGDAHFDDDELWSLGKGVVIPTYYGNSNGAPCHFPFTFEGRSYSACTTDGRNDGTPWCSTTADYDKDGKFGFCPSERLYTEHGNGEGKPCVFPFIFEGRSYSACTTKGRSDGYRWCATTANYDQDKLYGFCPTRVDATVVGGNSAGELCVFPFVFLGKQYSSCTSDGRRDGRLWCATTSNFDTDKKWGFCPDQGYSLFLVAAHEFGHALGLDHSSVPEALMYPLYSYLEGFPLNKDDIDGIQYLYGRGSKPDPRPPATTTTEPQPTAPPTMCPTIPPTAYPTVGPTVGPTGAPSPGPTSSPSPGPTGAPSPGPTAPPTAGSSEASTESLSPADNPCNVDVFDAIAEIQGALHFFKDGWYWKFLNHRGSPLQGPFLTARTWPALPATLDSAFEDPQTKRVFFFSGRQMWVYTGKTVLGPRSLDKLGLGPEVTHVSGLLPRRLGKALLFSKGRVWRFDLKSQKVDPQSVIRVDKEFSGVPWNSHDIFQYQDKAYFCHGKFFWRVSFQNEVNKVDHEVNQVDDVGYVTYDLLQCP

| Molecule | binding mode at the catalytic zinc ion [1] | inhibition of MMP-7 [2] | in vivo complex with active MMP-9 [3] | binding to MT1-MMP [4] | mode of inhibition of MMP-2 [5] |
| --- | --- | --- | --- | --- | --- |
| B1 | directly binds the zinc ion | neither MMP-7 nor TACE were inhibited to any measurable extent | formed a specific in vivo complex | – | – |
| B2 | – | – | – | no binding was detected | competitive inhibitor |
